Measurements reported in publication PMC10275583, “A symmetry mismatch unraveled: How phage HK97 scaffold flexibly accommodates a 12-fold pore at a 5-fold viral capsid vertex” (Science Advances, 2023).

Target: the molecule itself
Experiment: cryo-EM structure; HK97 Prohead I particles with portal, purified from E. coli co-expressing genes 3 and 5; buffer 100 mM KCl, 20 mM potassium phosphate pH 7.5; icosahedral map 3.6 A, focused reconstructions of penton vertex (C5, 3.0 A) and portal vertex (no symmetry 3.6 A, C12 3.2 A)

B1: bacteriophage HK97 portal protein (natural protein, UniProt P49859 1-424, looked up)
chain: MEEPKYTIDLRTNNGWWARLKSWFVGGRLVTPNQGSQTGPVSAHGYLGDSSINDERILQISTVWRCVSLISTLTACLPLDVFETDQNDNRKKVDLSNPLARLLRYSPNQYMTAQEFREAMTMQLCFYGNAYALVDRNSAGDVISLLPLQSANMDVKLVGKKVVYRYQRDSEYADFSQKEIFHLKGFGFTGLVGLSPIAFACKSAGVAVAMEDQQRDFFANGAKSPQILSTGEKVLTEQQRSQVEENFKEIAGGPVKKRLWILEAGFSTSAIGVTPQDAEMMASRKFQVSELARFFGVPPHLVGDVEKSTSWGSGIEQQNLGFLQYTLQPYISRWENSIQRWLIPSKDVGRLHAEHNLDGLLRGDSASRAAFMKAMGESGLRTINEMRRTDNMPPLPGGDVAMRQAQYVPITDLGTNKEPRNNGA
notes: Portal protein of bacteriophage HK97, wild-type gene 3; 50 N-terminal residues are not visible in the density map and are missing from the model; Dodecamer at one vertex of Prohead I; also called gene 3 product; dodecameric portal complex; source: E. coli BL21 (DE3), plasmid pVPB expressing HK97 genes 3 and 5; purified within Prohead I particles (PEG precipitation, ultracentrifugation, glycerol …)
- stoichiometry N: 12
